Measurements published in article PMC3956929.

Legend:
[1] = molecular target: GAL4 DNA-binding domain-fused Bombyx mori Ago3 (pDBD-Ago3) (Bombyx mori) (UniProt A9ZSZ2); experiment: two-hybrid; insect two-hybrid (I2H) in BmN4 cells: GAL4 DBD bait, p65 AD prey, 4xUAS-TATA-Luc reporter, luciferase at 72 h post-transfection, relative to the pUC18 control prey; also in BmN4-SID1 cells 72 h after dsRNA against HP1a, HP1b, Ago3, Siwi, putative piRNA-related genes or GFP (control)
[2] = molecular target: GAL4 DNA-binding domain-fused Bombyx mori Siwi (pDBD-Siwi) (Bombyx mori) (UniProt A8D8P8); experiment: as above
Chain of UniProt A8D8P8 (A8D8P8 whole entry, the tested form may be a part): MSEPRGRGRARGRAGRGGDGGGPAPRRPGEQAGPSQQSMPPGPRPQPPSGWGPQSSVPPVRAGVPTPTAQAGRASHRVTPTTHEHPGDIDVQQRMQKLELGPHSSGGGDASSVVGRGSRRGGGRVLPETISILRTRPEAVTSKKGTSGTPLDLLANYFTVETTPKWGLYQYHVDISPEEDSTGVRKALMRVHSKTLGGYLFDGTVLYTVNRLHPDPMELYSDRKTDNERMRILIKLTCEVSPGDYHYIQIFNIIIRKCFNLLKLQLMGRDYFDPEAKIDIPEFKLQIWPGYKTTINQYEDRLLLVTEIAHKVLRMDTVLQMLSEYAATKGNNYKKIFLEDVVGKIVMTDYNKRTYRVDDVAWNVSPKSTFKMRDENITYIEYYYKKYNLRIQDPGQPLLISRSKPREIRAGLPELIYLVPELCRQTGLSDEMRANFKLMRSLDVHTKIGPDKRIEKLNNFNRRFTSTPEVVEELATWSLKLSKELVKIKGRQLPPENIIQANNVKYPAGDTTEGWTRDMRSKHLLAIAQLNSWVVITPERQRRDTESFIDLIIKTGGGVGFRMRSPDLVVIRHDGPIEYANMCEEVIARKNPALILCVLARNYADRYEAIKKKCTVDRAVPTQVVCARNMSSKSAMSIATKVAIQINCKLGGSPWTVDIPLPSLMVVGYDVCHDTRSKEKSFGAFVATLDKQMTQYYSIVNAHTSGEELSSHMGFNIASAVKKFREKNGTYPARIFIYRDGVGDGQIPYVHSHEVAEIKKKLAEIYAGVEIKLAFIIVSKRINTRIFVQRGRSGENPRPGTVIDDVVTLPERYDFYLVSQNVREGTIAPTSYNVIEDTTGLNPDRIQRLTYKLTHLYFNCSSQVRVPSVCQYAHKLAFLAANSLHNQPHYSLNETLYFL

Chain of UniProt A9ZSZ2 (A9ZSZ2 whole entry, the tested form may be a part): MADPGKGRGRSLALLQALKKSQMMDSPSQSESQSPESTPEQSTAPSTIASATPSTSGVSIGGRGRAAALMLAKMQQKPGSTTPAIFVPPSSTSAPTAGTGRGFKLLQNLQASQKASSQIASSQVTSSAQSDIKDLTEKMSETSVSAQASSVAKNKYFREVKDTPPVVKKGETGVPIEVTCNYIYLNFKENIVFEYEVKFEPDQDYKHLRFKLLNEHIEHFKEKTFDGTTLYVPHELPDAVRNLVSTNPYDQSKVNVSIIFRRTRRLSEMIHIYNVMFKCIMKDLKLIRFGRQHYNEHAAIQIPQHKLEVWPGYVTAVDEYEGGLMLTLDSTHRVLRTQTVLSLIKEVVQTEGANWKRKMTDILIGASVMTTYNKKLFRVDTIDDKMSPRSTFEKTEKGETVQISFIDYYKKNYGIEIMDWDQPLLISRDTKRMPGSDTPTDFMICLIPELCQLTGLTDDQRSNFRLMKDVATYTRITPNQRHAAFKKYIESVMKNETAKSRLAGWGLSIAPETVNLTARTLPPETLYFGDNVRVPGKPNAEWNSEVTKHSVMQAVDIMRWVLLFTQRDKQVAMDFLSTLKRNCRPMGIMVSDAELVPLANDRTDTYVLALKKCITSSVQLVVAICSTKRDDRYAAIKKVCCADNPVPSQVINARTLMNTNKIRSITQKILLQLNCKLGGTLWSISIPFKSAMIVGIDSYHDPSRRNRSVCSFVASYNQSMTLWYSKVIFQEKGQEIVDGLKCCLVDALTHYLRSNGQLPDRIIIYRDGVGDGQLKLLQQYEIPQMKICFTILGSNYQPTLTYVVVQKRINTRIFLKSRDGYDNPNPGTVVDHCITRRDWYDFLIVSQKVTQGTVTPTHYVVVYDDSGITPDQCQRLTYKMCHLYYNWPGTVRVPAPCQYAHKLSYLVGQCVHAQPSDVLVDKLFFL

p65 activation domain-fused Bombyx mori HP1a (pAD-HP1a) (natural protein)
fold increase of reporter activity over the pUC18 control [1]: > 10 fold | fold increase of reporter activity over the pUC18 control [2]: > 10 fold
